Results as given in a protein production outcome set (Wang et al. 2014).

Test: label from the status in PepcDB records

Question: Which protein production does the source give for “MVFTLADSVSQVALGPSWLDPMELLSGSGPFGSFILPAMLAIVFIESGLLFPLLPGDSLLFTGGLLANQADPFAPLWLVLILCPIAAILGDQVGYWIGHKFHPRLVNRPDGRIFKQEYLKQTEDFFEKHGPVTIILCRFVPIVRTYAPLVAGMAGMRYRTFIIYNMIGGILWGSGVVALGAALGQFDFVRNNIDLIFLLIVFISVVPGLVGMARKLADGHKQANTEPQENPAVQTAPVKTQEAQEAPQN” here?
Answer: failed

Question: With “MVGAIARWASLKIVMNPRQLTKTMNIQFLGNITTAILLAVVLQITLWPSAAQACTRILWNNNKLAVVVGRTMDWPESTEPELMVFPQGIKRNGGMLGDMLVVKDNPAQWTSKYGSVVTTVYGMGTVDGLNEKGLGMHMLYLTATDFGPRNPKKAGVQAGLWGQYLLDNAATVKEALALMNEIQPVMVALDDMKATVHLAIEDASGDSAILEYVEGKLVVHHGPEYRVMTNDPTYDQQLKFLETWDFTNATRQTPLPGNVDPKDRFVRASYYQMMLPEPKTEQEAIAGILAIARNTSVPFGAPNNIPGSLYNTEYRTAIDLTNRRYFFELTTSPNVIWVNLDQLNLAPGAPVLSLDPDNLDLSGNVTDKFTKVLKSPF” as the sequence, how does the protein production read?
Answer: failed

Question: For “MVGIRKRKDFFEDFGSELFDNLEEMIEALLEEMGDSVPFVYGFSIIHRPGEDPELREFGNVPEYPQQEENFFPSETKEPLIDIFENENMVHVLAEFPEIEKEDILLHATGQHLEIKVLGLSEYTEDVDLPVRVDPKSAKASYKNGVLEVTFRRCSEESPVEIEINLEHHHHHH”, which protein production is on record?
Answer: not failed

Question: With “MVGIRKRKDFFEEFGSELFDNLEEMIEALLEDMGESVPFVYGFSIIRRPGEDPELREFGNISENSEDEENPFPSEIRDPLIDIFESEELIHVLAEIPEIEKEDLLLHATAQNLEIRILGASEYSQDIELPARVDPKSAKASYKNGVLEVTFKRCTEEMPVEIEIN” as the sequence, how does the protein production read?
Answer: failed

Question: For “MVHASQLNSYSLAILKLCLFILDFVLLCFFLMLTDEEIDSDSELDEYMEQQIAALPQNEINPEEDDESDSDEMGLDEDDDSSDEEDVEAEAPLKVAPPSKKMPNGAFEIAKGGKKNKSSGGKKRCPFPCGPSCKK”, which protein production is on record?
Answer: failed

Question: For “MVIFIMKKRYICILPYSLSYGGVFIDCKEVIANYWNFRSSTYKNGINGFDEEERAVWKQIFENSLASGKRLKVLDVGTGTGFLALLFAEMGHEVSGIDLSEGMLEKARHNADNMGLEISLFHGDAENLPFEDCSFDLVVNKYLLWTLQEPASAVREWKRVLKPGGMIFAIDGNWFDPRPDRYIKRMLYGLAERFAKKNQYNLIFKKSYGPIRNSLPLYEKISPKNISFLFSETGLMNTEISPLLEVQKFQRNRHSFSRRIFENNSIFLISGQKNLEHHHHHH”, which protein production is on record?
Answer: failed

Question: For “MVIIDWSLSVDRTIPKPLRIILRGVGQVFFCCNAVTGLIFLMALYIGGVTAGLAATAGVFSSTIAAHLLGFPEKDIDAGLYGFNGTLVGPCLFLFLENSPQLWLYVVLASILSTIVLAALMRILQPCDIPASTAPFILTCWMFMAAVYAFDSFSRGPLLPTAGIPVEAANISMIPVEIGYMAAAKGISEVMFADSVVVGILFLAGIAIHSLRGAAMALAGAIVGIVIPVLLGMDKSLIEMGLYAFNPVLAMMAVGWAFLKPSGRSMGLAFLAGIFTVICQAGLTGFLTPLGLPVLTFPFVLVMWVFLLAASRSKYWEYLNQGK”, which protein production is on record?
Answer: failed

Question: Which protein production does the source give for “MVIIGSKGCAKEILTALKWDNVEETVSLFDNINTDISDAYYDFPIIKSWNELEQHLKTDSKVIIGVGGGQRREVLARKIACLGGVLTTFISQKALVGGYDNTIEPGVVILSGATITCNVSIGQGTFINKSTVISHDVRIGRYCEVSPGAKVLGRAIIGDRTEIGANAVILPDVIVGADCKIGAGAVVTRNIDSHTTVAGVPARSITKSSNNAFKLKSKIRNLLYHIRIADFRKLREYNHYVFGKRKLMFLELLSHSWMYGASFENYYELQFFKKSRTECRQYLTSSLRHELTRQVNDPCEALVLKDKVRFSEVFEDILGRRVMTFDEIKRQMHDPYSISINEVVIKPIKGQAGQGIIFPMQNFTSLRQLHDYVISTVKKPDEYLYEERIIQHSALNKLNPSSLNTLRIVTYYDESINKVDVWSVVLRIGIKARTDNFATGGIAVLVDHRGVVCQPAIIKHPSGERFHIHPVSGEKITGCIIPYYDQAIALAKQAAMRIPKVRSIGWDVAITETGPYMLEGNDNWCMTLFQLPGGEGLRHLANSVCNMFSVYE” here?
Answer: failed

Question: For “MVIIVSMKANGFFDEQSSLKKSKIGLNLVWMFSLGHIFLITLSNVLVQYPFDMMGFHTTWGAFTYPAIFILTDLTTRIATANKARKIIMLSMTPGLILSYLVASYIEAGNNLNESGLSVLHLMPLRIALACFIAYVVGQLLDVAVFQRYRNRPAWWLAPTLSAVAGNFIDTALFFTIAFYHCSNPFLSQNWPEIAMVDVFFKIMISLIAFVPVYGLVLSILGIKTTNKLMV”, which protein production is on record?
Answer: failed

Question: With “MVIRELNNNWQSHAFDGYEVNWTEQQQTVSCLHTLVYPLAQGQGLHVTGISWNSTGSVLACAYGRLDDGDWSTLKSYVCTWNLDRQGLNPQQPSVVVEVPSAVMCLAFHPTQPSHIAGGLYSGEVLVWDMSRPEDPLLWRTGLTDDTHTDPVYQVLWLPEPRHSHRFQVLSAATDGKVLLWRGSGAGQLRLTKGFALAVQQLPRSTKLKKPPRGETEVGVTSVAFSSFDSSLFVLGTEGGFPLKCSLASEVAALTRMPSSVPLRAPVQFTFSPHGGPVYSVSCSPFHRNLFLSAGTDGHVHLYSMLQAQPLTSLQLSHKYLFAVRWSPVRPLVFAAASGEGDVQLFDLQKSSQKPTVSITQTQDGSPVYCLEFNSQQTQLLAAGDAKGMVKVWQLSTAFTEQGPREVEDLDQLEAEITT” as the sequence, how does the protein production read?
Answer: failed

Question: For “MVISLVIVAVTATEIFEIVELPFEKTLSAISVGSLFNFSVAVVSKSGYLGVFGLMALESTFIPVPSEVILPLSGYLVYIHTFTFAAIIADAIVASMVGSFIDYYLGLYIGRPIIVKILGFFYVKEDSLVKAENWIDRWGASSVFFARFIPGIRSLISIPAGMLKMKVWVFALMTFLGSVIWSTILVYIGFKAGPYWSSAVHSFSVILDQIIIDAIFAACLAYIGYFIYLKIKTRTKPSY”, which protein production is on record?
Answer: failed

Question: With “MVKDSEFLTLVFQSILDEIDVGLHVVDEHGNTIVYNNKMMQIEDMEKHDVLNKNLMDVFMFSKQQDSTLVQALQEGKTIKNVKQSYFNNKGQEITTINHTYPIVQDGKIRGAVEIAKDVTKLERLIRENMNKKGSTTYTFDSILGTSPAIQDVIENAKRATRTSSSVLLAGETGTGKELFAQSIHNGSDRSGGPFISQNCAALPDSLVESILFGTKKGAFTGAVDQPGLFEQAHGGTLLLDEINSLNLSLQAKLLRALQERKIRRIGSTKDTPIDVRIIATMNEDPIDAIAGERMRKDLYYRLSVVTLIIPPLRERKEDILLLASEFIQKNNHLFQMNVEHISDDVKQFFLSYDWPGNIRELEHMIEGAMNFMTDEQTITASHLPYQYRMKIKPADIPEPETPRHQPAADLKEKMESFEKYVIENVLRKHGHNISKAAQELGISRQSLQYRLKKFSHSSNE” as the sequence, how does the protein production read?
Answer: failed

Question: With “MVKELIEQGANVTGLVRDHVPQSNLYQGEHIKKMNIVRGSLEDLAVIERALGEYEIDTVFHLAAQAIVGVANRNPISTFEANILGTWNILEACRKHPLIKRVIVASSDKAYGDQENLPYDENMPLQGKHPYDVSKSCADLISHTYFHTYGLPVCITRCGNLYGGGDLNFNRIIPQTIQLVLNGEAPEIRSDGTFVRDYFYIEDAVQAYLLLAEKMEENNLAGEAFNFSNEIQLTVLELVEKILKKMNSNLKPKVLNQGSNEIKHQYLSAEKARKLLNWTPAYTIDEGLEKTIEWYTEFFKK” as the sequence, how does the protein production read?
Answer: failed

Question: With “MVKHARVRAPELVGRGGWINTGDRELSLAALRGRIVVLDFWTFCCVNCLHALDELRELEERHRDTVVIVGVHSPKFTHEAEHRAVLDAVERYSVEHPVLDDPERVTWRQYAVRAWPTLAVIDPEGYVVAQYTGEGHAHAIQRLVEELEARHAAKGTLRRGDAPYVAPEPEPTTLRFPGKAVSLPSGTFLVSDTTRHQLVELAEDGESPVRRIGSGRRGFTDGPADRAEFSEPQGLALLGDGSVVVADTVNHALRRYEPVTGEVTTLAGTGRQHRPGEPSRGAARAVSLSSPWDVALWNDRVWIAMAGVHQLWAYDPRDGSVTVTAGTGNEGLVDGPGPEAWFAQPSGLSATDDRLWVADSETSALRWVELDGTVRTAVGTGLFDFGHRDGPAARALLQHPLGVAALPDGSVVVADTYNHALRRYAPPTGEVSTLATDLREPSDAVVVGGDVLVVESARHRLTRLRLPHDALGTGSGEAVLRGTTEAAPGTLRLEVAFRALAGQKLDQRYGPATRLLVSATPPELLRAGEGAGTELSRSLDLDPSVPEGMLHVSATAASCDDDLDVPYPACHVHQKDWKIPVRLVEGASDRLPLVLTGVDTA” as the sequence, how does the protein production read?
Answer: failed
